From US11708418 come the findings set out here.

For test [1], the target named is Daratumumab (Darzalex; lot GHS0901, Janssen, USA). In words: anti-CD38 (DARATUMUMAB) inhibition IAT, ability to titrate the antibody, CD38ecd-Fc-10H as reference.
For test [2] the target is unchanged. Kind of test: IAT inhibition; 25 µl Darzalex dilution with 2 µl of 8.5 mg/ml protein.

Sequence of CD38ecd-flex-Fc-10H (P28907 45-300): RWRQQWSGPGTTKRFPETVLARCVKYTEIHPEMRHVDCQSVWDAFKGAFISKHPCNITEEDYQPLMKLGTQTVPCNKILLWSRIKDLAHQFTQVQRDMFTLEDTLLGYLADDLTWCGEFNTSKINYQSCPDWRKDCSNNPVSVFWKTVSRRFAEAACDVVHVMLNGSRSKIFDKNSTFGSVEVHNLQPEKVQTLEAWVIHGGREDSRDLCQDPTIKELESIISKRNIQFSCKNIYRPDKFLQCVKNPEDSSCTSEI
Sequence of CD38ecd-Fc (P28907 45-300 limits assumed): as the sequence (P28907 45-300) above

In test [1], “CD38ecd-Fc (from UniProt P28907 45-300) (Fc fusion)” displayed a Functionality of 50%.

Turning to “CD38ecd-flex-Fc-10H (from UniProt P28907 45-300) (Fc fusion)”, the anti-CD38 concentration completely inhibited in test [2] is 0.125 mg/mL. The Functionality in test [1] was determined as 100%.
